Results from patent US20240390496A1 (published 2024).

Molecular target: T1, MAGE-A3 peptide on HLA-A*02:01 (human)
T1 peptide: KVAELVHFL
Assay: killing

B1: MAGE-A3 (112-120) TCR (MAGE-A3-112-120-Va / MAGE-A3-112-120-Vb) (TCR, V domains shown)
Valpha: GDSVTQTEGLVTLTEGLPVMLNCTYQTIYSNPFLFWYVQHLNESPRLLLKSFTDNKRTEHQGFHATLHKSSSSFHLQKSSAQLSDSALYYCAFDTNTYKVIFGKGTHLHVLP
Vbeta: DMKVTQMPRYLIKRMGENVLLECGQDMSHETMYWYRQDPGLGLQLIYISYDVDSNSEGDIPKGYRVSRKKREHFSLILDSAKTNQTSVYFCASSSTNTEVFFGKGTRLTVL
- binding result: recognises
